Experimental data from the supplement of paper PMC9170038.

Tested on: MS2 coat protein
Test: apparent KD of MS2 coat protein; designed switch direction (-1 OFF switch, 1 ON switch): 1; higher = weaker reporter binding
Summary of the method: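 Each step of the titration lasted 0.8–1.5 h at the lowest concentration and 10–20 min at the highest. The protein, SNAP-549-labelled MS2 coat protein, went from 0.7 or 1.5 nM doubling to 3 µM over RNA switches transcribed on Illumina chips by stalled E. coli RNA polymerase. Normalised cluster fluorescence was curve-fitted, and the per-design median over clusters is given as apparent KD.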

[1] = input ligand: microRNA oligo, concentration not stated
[2] = Eterna round: R95, input ligand: FMN 200 uM
[3] = Eterna round: R95, input ligand: microRNA oligo, concentration not stated
[4] = Eterna round: R95, input ligand: none

Sequence	apparent KD of MS2 coat protein (input ligand: FMN 200 uM)	apparent KD of MS2 coat protein [1]	apparent KD of MS2 coat protein (input ligand: none)	apparent KD of MS2 coat protein [2]	apparent KD of MS2 coat protein [3]	apparent KD of MS2 coat protein [4]
AGCACGAUUCGAGGAUAUGAGUCACAUGAGGAUCACCCAUGUCUAAUGGAUGGGACGGCCCAACCUCAGAAGGCGAUACCGGCA [Eternabot solution 24] (Eterna round: R96, puzzle: Same State NG 2)	392 nM	307 nM	338 nM			
AGCCGAAGCGCAGGAUAUACAUGGAUACAUGAGGAUCACCCAUGUAGCAACACGUGGUAGUGAUUGUAGAAGGGUGCUCGGCGC [Omei SS(NG)2 Cv17] (Eterna round: R96, puzzle: Same State NG 2)	27.4 nM	35.5 nM	54.6 nM			
AGCCGAGACUGAGGAUAUAGAAAUCUACAUGAGGAUCACCCAUGUAGCAACACGUGGUAGUGAUUCUAGAAGGCGGCUCGGCGC [Omei SS(NG)2 Cv5] (Eterna round: R96, puzzle: Same State NG 2)	13.4 nM	41.1 nM	40.6 nM			
AGCCGAGACUGAGGAUAUAGAUAUCUACAUGAGGAUCACCCAUGUAGCAACACGUGGUAGUGAUUCUAGAAGGCGGCUCGGCGC [Omei SS(NG)2 Cv6] (Eterna round: R96, puzzle: Same State NG 2)	19.2 nM	66.2 nM	83.7 nM			
AGCCUGAGUCGAGGAUAUUAUGGAUCCUUUAAUACAUGAGGAUCACCCAUGUAAUUAAUUAUACAUGAGAAGGUGACUCAGGCA [SSNG2/11-B1] (Eterna round: R96, puzzle: Same State NG 2)		186 nM				
AGCCUGGAAGUCCAGGCAAAACAUGAGGAUCACCCAUGUACAUAGGAUAUCGUCUGAAAAGCAGACGAGAAGGGUGACCGAACU [Titedi] (Eterna round: R96, puzzle: Same State NG 3)	687 nM	96.8 nM	192 nM			
AGCGAGAUAGGCAAGGAUAUGCUGAGGUGCACAUGAGGAUCACCCAUGUCAGUGGCGAAAGCGAAGCAGAAGGUGCAUUCUCUUU [ak fifth] (puzzle: Same State 2)				27.1 nM	190 nM	332 nM
AGCGAGAUAGGCGAGGAUAUGCUUUUUUGCACAUGAGGAUCACCCAUGUCUUUGUUUUUUGUUUUGCAGAAGGCGCAUUCUCUUU [ak unbound state multiloop] (Eterna round: R96, puzzle: Same State 2)	46.1 nM	15.8 nM	26.1 nM			
AGCGAGAUAGGCGAGGAUAUGCUUUUUUGCACAUGAGGAUCACCCAUGUCUUUGUUUUUUGUUUUGCAGAAGGCGCAUUCUCUUU [ak unbound state multiloop] (puzzle: Same State 2)				32.7 nM	14.3 nM	12.7 nM
AGCUAAAACGAAGGAUAUACAGACAUGAGGAUCACCCAUGUAUACAUGAUUUAUUGUGAUCACAUGUAGAAGGUCGUACUAACA [SameState NG2 #20] (Eterna round: R96, puzzle: Same State NG 2)	190 nM	649 nM	681 nM			
AGCUAAAACGAAGGAUAUACUGACAUGAGGAUCACCCAUGUAUACAUGAUUUAUUGUGAUCACAUGUAGAAGGUCGUACUAACA [SameState NG2 #21] (Eterna round: R96, puzzle: Same State NG 2)	310 nM	269 nM	413 nM			
AGCUAGUACCGAGGAUAUACAUACAUGAGGAUCACCCAUGUAUACAUGAAUUAUUGAGACUACAUGUAGAAGGCGGUACUAGCA [JL SSNG2 1.20] (Eterna round: R96, puzzle: Same State NG 2)	16.6 nM	35.7 nM	64.9 nM			
AGCUAGUACCGAGGAUAUACGUACAUGAGGAUCACCCAUGUAUACAUGAAUUAAUGAGACUACAUGUAGAAGGCGGUACUAGCA [Mat - Same State NG 2 - JL mod - D49] (Eterna round: R96, puzzle: Same State NG 2)		34.3 nM				
